First the molecules themselves.
T1: EsCas13d, nuclease-dead (Eubacterium siraeum, UniProt B0MS50, R295A;H300A;R849A;H854A)
T1 sequence: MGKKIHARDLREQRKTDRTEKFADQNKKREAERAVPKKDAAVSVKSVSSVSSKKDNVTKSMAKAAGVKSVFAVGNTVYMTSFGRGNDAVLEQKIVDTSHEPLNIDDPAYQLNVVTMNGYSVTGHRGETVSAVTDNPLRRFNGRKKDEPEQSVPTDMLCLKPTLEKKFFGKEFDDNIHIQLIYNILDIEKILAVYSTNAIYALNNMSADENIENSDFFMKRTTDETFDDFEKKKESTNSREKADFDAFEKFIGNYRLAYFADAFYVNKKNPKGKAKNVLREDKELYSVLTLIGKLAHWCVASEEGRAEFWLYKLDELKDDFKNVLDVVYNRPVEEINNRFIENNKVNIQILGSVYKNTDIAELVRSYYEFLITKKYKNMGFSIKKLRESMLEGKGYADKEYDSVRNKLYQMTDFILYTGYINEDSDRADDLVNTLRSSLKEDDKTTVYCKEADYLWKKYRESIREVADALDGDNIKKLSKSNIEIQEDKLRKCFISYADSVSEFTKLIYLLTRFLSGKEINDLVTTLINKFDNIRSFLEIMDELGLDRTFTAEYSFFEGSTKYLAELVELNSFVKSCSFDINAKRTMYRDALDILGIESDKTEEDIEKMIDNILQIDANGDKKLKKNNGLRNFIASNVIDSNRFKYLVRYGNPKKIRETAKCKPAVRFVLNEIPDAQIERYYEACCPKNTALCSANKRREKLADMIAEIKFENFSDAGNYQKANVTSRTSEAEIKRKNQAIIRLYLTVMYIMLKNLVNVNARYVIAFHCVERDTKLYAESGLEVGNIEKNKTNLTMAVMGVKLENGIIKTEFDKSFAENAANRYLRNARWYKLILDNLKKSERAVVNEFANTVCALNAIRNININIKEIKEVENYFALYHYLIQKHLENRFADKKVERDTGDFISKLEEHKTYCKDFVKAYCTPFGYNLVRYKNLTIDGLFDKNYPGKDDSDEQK

B1: target 2 MT 5'PFS AAA 3'PFS ACC (mixed)
RNA 1: CACCCGUGCAAAAUUGCAGGGGUCUAAAACCUUCUCCAAAUUGUUUCAUCCU
RNA 2: GGGAAUGGAUCCACAUCUACGAAUUCAAAAGGAUGAAACAAUUUGGAGAAGACCAGAUCGGAAGAGCACACGU
B2: target 2 MT 5'PFS UUG 3'PFS CCG (mixed)
RNA 1: B1 RNA 1
RNA 2: B1 RNA 2 with A27U, A28U, A29G, A52C, C54G
B3: target 2 MT 5'PFS GUA 3'PFS UCA (mixed)
RNA 1: B1 RNA 1
RNA 2: B1 RNA 2 with A27G, A28U, A52U, C54A
B4: target 2 MT 5'PFS CGU 3'PFS ACU (mixed)
RNA 1: B1 RNA 1
RNA 2: B1 RNA 2 with A27C, A28G, A29U, C54U
B5: target 2 MT 5'PFS UGA 3'PFS CCG (mixed)
RNA 1: B1 RNA 1
RNA 2: B1 RNA 2 with A27U, A28G, A52C, C54G
B6: target 2 MT 5'PFS UUA 3'PFS CAU (mixed)
RNA 1: B1 RNA 1
RNA 2: B1 RNA 2 with A27U, A28U, A52C, C53A, C54U
B7: target 2 MT 5'PFS GUA 3'PFS UCC (mixed)
RNA 1: B1 RNA 1
RNA 2: B1 RNA 2 with A27G, A28U, A52U
B8: target 2 MT 5'PFS GGG 3'PFS ACG (mixed)
RNA 1: B1 RNA 1
RNA 2: B1 RNA 2 with A27G, A28G, A29G, C54G
B9: target 2 MT 5'PFS ACC 3'PFS UGC (mixed)
RNA 1: B1 RNA 1
RNA 2: B1 RNA 2 with A28C, A29C, A52U, C53G
B10: target 2 MT 5'PFS GAG 3'PFS ACU (mixed)
RNA 1: B1 RNA 1
RNA 2: B1 RNA 2 with A27G, A29G, C54U
B11: target 2 MT 5'PFS GGG 3'PFS ACU (mixed)
RNA 1: B1 RNA 1
RNA 2: B1 RNA 2 with A27G, A28G, A29G, C54U
B12: target 2 MT 5'PFS GGG 3'PFS ACA (mixed)
RNA 1: B1 RNA 1
RNA 2: B1 RNA 2 with A27G, A28G, A29G, C54A
B13: target 2 MT 5'PFS CGA 3'PFS AUC (mixed)
RNA 1: B1 RNA 1
RNA 2: B1 RNA 2 with A27C, A28G, C53U
B14: target 2 MT 5'PFS CGU 3'PFS ACG (mixed)
RNA 1: B1 RNA 1
RNA 2: B1 RNA 2 with A27C, A28G, A29U, C54G
B15: target 2 MT 5'PFS GAG 3'PFS ACG (mixed)
RNA 1: B1 RNA 1
RNA 2: B1 RNA 2 with A27G, A29G, C54G
B16: target 2 MT 5'PFS UUA 3'PFS CAG (mixed)
RNA 1: B1 RNA 1
RNA 2: B1 RNA 2 with A27U, A28U, A52C, C53A, C54G
B17: target 2 MT 5'PFS ACC 3'PFS UGU (mixed)
RNA 1: B1 RNA 1
RNA 2: B1 RNA 2 with A28C, A29C, A52U, C53G, C54U
B18: target 2 MT 5'PFS ACC 3'PFS UGA (mixed)
RNA 1: B1 RNA 1
RNA 2: B1 RNA 2 with A28C, A29C, A52U, C53G, C54A
B19: target 2 MT 5'PFS UUA 3'PFS CAC (mixed)
RNA 1: B1 RNA 1
RNA 2: B1 RNA 2 with A27U, A28U, A52C, C53A
B20: target 2 MT 5'PFS UUG 3'PFS CCU (mixed)
RNA 1: B1 RNA 1
RNA 2: B1 RNA 2 with A27U, A28U, A29G, A52C, C54U
B21: target 2 MT 5'PFS GAG 3'PFS ACC (mixed)
RNA 1: B1 RNA 1
RNA 2: B1 RNA 2 with A27G, A29G
B22: target 2 MT 5'PFS GGC 3'PFS CUU (mixed)
RNA 1: B1 RNA 1
RNA 2: B1 RNA 2 with A27G, A28G, A29C, A52C, C53U, C54U
B23: target 2 MT 5'PFS UAG 3'PFS CAC (mixed)
RNA 1: B1 RNA 1
RNA 2: B1 RNA 2 with A27U, A29G, A52C, C53A
B24: target 2 MT 5'PFS GAC 3'PFS CGC (mixed)
RNA 1: B1 RNA 1
RNA 2: B1 RNA 2 with A27G, A29C, A52C, C53G
B25: target 2 MT 5'PFS UUA 3'PFS CAA (mixed)
RNA 1: B1 RNA 1
RNA 2: B1 RNA 2 with A27U, A28U, A52C, C53A, C54A
B26: target 2 MT 5'PFS GAG 3'PFS ACA (mixed)
RNA 1: B1 RNA 1
RNA 2: B1 RNA 2 with A27G, A29G, C54A
B27: target 2 MT 5'PFS GGG 3'PFS ACC (mixed)
RNA 1: B1 RNA 1
RNA 2: B1 RNA 2 with A27G, A28G, A29G
B28: target 2 MT 5'PFS UGA 3'PFS CCA (mixed)
RNA 1: B1 RNA 1
RNA 2: B1 RNA 2 with A27U, A28G, A52C, C54A
B29: target 1 insU 3' of 12,insU 3' of 1 (mixed)
RNA 1: CACCCGUGCAAAAAUGCAGGGGUCUAAAACUGAGCGGAUAACCUCUCUAUGG
RNA 2: GGGAAUGGAUCCACAUCUACGAAUUCGUACCAUAGAGAGGUUUAUCCGCUCAUCCGAGAUCGGAAGAGCACACGU
B30: target 1 C6U,A16G (mixed)
RNA 1: B29 RNA 1
RNA 2: GGGAAUGGAUCCACAUCUACGAAUUCGUACCAUAGGGAGGUUAUCUGCUCACCGAGAUCGGAAGAGCACACGU
B31: target 1 A1G,C2G (mixed)
RNA 1: B29 RNA 1
RNA 2: B30 RNA 2 with G36A, U46C, C50G, A51G

Changes are numbered by the printed parent chain. Names may count otherwise.

The series has as its target T1, EsCas13d, nuclease-dead. Put plainly: crRNA (strand 1, pre-loaded); Mg2+; 40 mM Tris-HCl pH 7.5, 150 mM NaCl, 6 mM MgCl2, 1 mM DTT, 0.1% Tween-20, 0.2 mg/ml BSA; 25 C; 10 min per concentration, then washed. The conditions noted are these: tags: His6-TwinStrep-SUMO cleaved; N-terminal SNAP kept (SNAP-Surface 488); label: 3' end held by stalled T7 RNA polymerase.
The term Kd denotes a measure of binding affinity in units of concentration. For the molecule B1, binding was characterised by a dissociation constant (Kd) of 9.2 ± 2.8 nM.

The molecule B2 yielded an equilibrium dissociation constant (Kd) of 16.8 ± 1.4 nM.

B3: the affinity, expressed as Kd, was 10.3 ± 1.2 nM.

The molecule B4 gave a Kd of 23 ± 5 nM.

B5 registered a Kd of 9.2 ± 1 nM.

On to B6, for which the Kd turned out to be 14.3 ± 1.3 nM.

As for B7, the Kd was found to be 29 ± 5 nM.

Turning to B8, the Kd is 10.4 ± 0.6 nM.

Molecule B9 displayed an equilibrium dissociation constant (Kd) of 7.7 ± 2.2 nM.

Regarding B10, the Kd was found to be 8.1 ± 0.7 nM.

B11 came in with a Kd of 9.3 ± 0.4 nM.

Consider B12, for which the affinity, expressed as Kd, was 9.4 ± 0.8 nM.

In the case of B13, the Kd turned out to be 7.1 ± 1.4 nM.

Consider B14, for which binding was put at a Kd of 21 ± 5 nM.

In the case of B15, the dissociation constant Kd was determined as 6.7 ± 0.32 nM.

The molecule B16 yielded a Kd of 18.5 ± 1.9 nM.

Consider B17, for which the affinity, expressed as Kd, was 18 ± 6 nM.

Turning to B18, the dissociation constant Kd worked out at 8 ± 1.4 nM.

With B19, the Kd was determined as 30 ± 7 nM.

As for B20, the Kd was about 80 nM.

In the case of B21, the dissociation constant Kd was found to be 14 ± 4 nM.

Molecule B22 had a Kd of 17.6 ± 1.8 nM.

B23 had a Kd of 2.69 ± 0.34 nM.

Take B24: the Kd was 14.8 ± 3.2 nM.

In the case of B25, the Kd came to 14.4 ± 2.6 nM.

B26: binding was put at a Kd of 9.6 ± 1.6 nM.

With B27, binding was characterised by a dissociation constant (Kd) of 22 ± 4 nM.

The molecule B28 showed a Kd of 15.6 ± 2.8 nM.

Regarding B29, the Kd was 8.23 ± 0.33 nM.

For B30, the dissociation constant (Kd) came to 31.9 ± 2.2 nM.

The molecule B31 registered a dissociation constant (Kd) of 5.54 ± 0.24 nM.

The values above are taken from article PMC10786891, “Massively parallel profiling of RNA-targeting CRISPR-Cas13d”.
